Tests used:
[1] = target: FH-AGO2 (Flag-HA-tagged wild type AGO2 expressed in MCF-7 cells) (UniProt Q9UKV8)
[2] = target: FH-AGO2-K726R (UniProt Q9UKV8)
Sequence of FH-AGO2-K726R (Q9UKV8 whole entry K726R): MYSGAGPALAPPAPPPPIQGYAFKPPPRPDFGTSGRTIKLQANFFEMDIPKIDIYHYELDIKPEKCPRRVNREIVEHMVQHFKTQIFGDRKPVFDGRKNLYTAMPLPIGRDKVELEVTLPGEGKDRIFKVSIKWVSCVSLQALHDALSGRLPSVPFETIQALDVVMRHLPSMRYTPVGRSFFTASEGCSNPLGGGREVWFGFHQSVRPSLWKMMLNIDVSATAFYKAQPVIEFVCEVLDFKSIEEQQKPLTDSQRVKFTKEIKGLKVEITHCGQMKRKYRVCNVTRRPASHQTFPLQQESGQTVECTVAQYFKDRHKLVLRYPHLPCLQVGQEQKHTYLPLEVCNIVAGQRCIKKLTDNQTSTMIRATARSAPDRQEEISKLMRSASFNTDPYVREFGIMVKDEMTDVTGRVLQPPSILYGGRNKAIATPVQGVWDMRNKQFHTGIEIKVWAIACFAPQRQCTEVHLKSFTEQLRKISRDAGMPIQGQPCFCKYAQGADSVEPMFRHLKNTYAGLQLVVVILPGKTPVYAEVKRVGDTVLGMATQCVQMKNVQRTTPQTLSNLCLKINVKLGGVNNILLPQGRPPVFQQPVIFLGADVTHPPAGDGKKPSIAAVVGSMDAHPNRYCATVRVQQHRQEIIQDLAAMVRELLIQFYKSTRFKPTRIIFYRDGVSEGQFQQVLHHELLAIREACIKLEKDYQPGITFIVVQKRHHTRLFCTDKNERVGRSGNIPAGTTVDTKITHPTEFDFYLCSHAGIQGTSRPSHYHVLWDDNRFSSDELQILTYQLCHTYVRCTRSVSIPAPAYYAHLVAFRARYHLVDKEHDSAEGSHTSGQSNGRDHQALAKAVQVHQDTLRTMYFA

Sequence of FH-AGO2 (Flag-HA-tagged wild type AGO2 expressed in MCF-7 cells) (Q9UKV8 whole entry): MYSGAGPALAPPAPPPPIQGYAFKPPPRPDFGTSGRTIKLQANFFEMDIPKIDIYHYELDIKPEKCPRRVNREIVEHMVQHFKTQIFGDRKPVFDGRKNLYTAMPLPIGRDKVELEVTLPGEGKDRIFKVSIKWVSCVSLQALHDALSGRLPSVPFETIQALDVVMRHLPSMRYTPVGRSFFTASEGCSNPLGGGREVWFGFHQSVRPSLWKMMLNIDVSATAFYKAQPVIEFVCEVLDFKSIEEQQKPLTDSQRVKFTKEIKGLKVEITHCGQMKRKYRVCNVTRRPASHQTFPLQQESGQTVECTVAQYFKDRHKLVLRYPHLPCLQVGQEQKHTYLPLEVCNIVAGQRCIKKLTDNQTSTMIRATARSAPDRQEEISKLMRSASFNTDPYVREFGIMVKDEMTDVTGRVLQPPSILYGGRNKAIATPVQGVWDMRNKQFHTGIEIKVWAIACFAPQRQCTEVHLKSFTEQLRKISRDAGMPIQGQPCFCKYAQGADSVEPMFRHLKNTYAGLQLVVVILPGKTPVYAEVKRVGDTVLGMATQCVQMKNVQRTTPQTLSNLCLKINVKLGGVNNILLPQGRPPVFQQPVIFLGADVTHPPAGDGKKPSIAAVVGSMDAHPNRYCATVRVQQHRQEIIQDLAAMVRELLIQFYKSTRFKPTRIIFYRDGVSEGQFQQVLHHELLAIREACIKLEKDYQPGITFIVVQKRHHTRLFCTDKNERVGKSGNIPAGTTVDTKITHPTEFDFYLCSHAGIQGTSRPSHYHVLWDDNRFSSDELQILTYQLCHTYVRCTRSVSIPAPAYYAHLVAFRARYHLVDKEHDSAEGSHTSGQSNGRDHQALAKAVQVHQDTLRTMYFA

## FH-LSD1-K661A (catalytically compromised LSD1)
[1]
  K726me1 level on FH-AGO2 in in vitro demethylation assay (immunoblot): FH-LSD1 but not FH-LSD1-K661A decreased K726mel level on FH-AGO2

## FH-LSD1 (Flag-HA-tagged wild type LSD1 expressed in MCF-7 cells)
[1]
  K726me1 level on FH-AGO2 in in vitro demethylation assay (immunoblot): FH-LSD1 but not FH-LSD1-K661A decreased K726mel level on FH-AGO2
[2]
  K726me1 level in in vitro demethylation assay (immunoblot): had no observable effects on FH-AGO2-K726R

From patent publication US20240018242
